Literature values, collected in PMC4451881.

Target: CK2beta (Homo sapiens) (UniProt P67870)
Sequence (P67870 2-215): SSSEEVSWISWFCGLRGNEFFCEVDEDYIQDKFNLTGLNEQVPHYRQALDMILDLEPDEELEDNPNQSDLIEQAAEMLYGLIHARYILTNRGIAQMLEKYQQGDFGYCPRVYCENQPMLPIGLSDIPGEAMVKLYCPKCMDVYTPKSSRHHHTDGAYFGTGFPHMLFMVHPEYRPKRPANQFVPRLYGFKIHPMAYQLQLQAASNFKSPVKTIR

Chain of CK2alpha (P68400 whole entry): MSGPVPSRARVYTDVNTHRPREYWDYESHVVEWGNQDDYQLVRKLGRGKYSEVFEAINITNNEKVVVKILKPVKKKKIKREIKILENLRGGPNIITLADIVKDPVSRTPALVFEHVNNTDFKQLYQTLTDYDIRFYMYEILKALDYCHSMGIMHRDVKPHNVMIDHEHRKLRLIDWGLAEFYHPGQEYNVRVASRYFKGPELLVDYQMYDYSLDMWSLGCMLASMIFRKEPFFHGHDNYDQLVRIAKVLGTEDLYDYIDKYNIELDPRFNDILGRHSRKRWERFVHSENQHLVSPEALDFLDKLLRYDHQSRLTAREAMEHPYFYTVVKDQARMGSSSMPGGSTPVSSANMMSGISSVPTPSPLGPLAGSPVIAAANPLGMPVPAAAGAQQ

- Kd: 4 nM
Substance: CK2alpha (from UniProt P68400)
